HSP90 ATPase activity (ADP-Glo), 2.5 µM HSP90 with 1-20 µM Aha1, 1 mM ATP, 1 h and HSP90 ATPase activity (ADP-Glo), 2.5 µM HSP90 with Aha1 (20 µM) and Sba1 (20 µM) together, 1 mM ATP; fold of HSP90 alone data for one substance are collected here from article PMC11053944, “FRET Assays for the Identification of C. albicans HSP90-Sba1 and Human HSP90α-p23 Binding Inhibitors” (Pharmaceuticals, 2024).

The target in test [1] is C. albicans HSP90 (without fluorescent protein) (C. albicans) (UniProt P46598).
For test [2] the target is unchanged. The source holds these as a separate data set.

The substance “C. albicans Aha1 (from UniProt A0A1D8PU72 1-346) (natural protein)” gave an HSP90 ATPase activity (ADP-Glo), 2.5 µM HSP90 with 1-20 µM Aha1, 1 mM ATP, 1 h at 30 °C; fold of HSP90 alone in test [1] of 7 fold. For the same substance, the HSP90 ATPase activity (ADP-Glo), 2.5 µM HSP90 with Aha1 (20 µM) and Sba1 (20 µM) together, 1 mM ATP; fold of HSP90 alone in test [2] turned out to be 1.9 fold.
